Tests used:
[1] = target: FLAG-tagged AnkG UPA-DD domains without the E35a-encoded peptide (mouse); test: co-IP; N2a cells 48 h after transfection with FLAG-UPA-DD minigene plasmids with or without E35a; Pierce IP lysis buffer; anti-FLAG M2 antibody on Protein G magnetic beads; immunoblot with anti-IP3R1
[2] = target: ankyrin-G (AnkG) lacking the E35a-encoded peptide, endogenous, Ank3 E35a-/- mouse cerebellum (mouse (endogenous in cerebellum)) (UniProt G5E8K5); test: co-IP; mouse cerebellum whole tissue lysate (500 μg total protein; WT or Ank3 E35a-/-); anti-AnkG antibody (Santa Cruz sc-12719) on Protein G magnetic beads, overnight at 4°C; washed with NT2 buffer; immunoblot with anti-IP3R1 or anti-Na-K ATPase; normalised to the AnkG 190 kDa isoform

Chain of FLAG-tagged AnkG UPA-DD domains without the E35a-encoded peptide (mouse) (G5E8K5 whole entry, the tested form may be a part, canonical isoform): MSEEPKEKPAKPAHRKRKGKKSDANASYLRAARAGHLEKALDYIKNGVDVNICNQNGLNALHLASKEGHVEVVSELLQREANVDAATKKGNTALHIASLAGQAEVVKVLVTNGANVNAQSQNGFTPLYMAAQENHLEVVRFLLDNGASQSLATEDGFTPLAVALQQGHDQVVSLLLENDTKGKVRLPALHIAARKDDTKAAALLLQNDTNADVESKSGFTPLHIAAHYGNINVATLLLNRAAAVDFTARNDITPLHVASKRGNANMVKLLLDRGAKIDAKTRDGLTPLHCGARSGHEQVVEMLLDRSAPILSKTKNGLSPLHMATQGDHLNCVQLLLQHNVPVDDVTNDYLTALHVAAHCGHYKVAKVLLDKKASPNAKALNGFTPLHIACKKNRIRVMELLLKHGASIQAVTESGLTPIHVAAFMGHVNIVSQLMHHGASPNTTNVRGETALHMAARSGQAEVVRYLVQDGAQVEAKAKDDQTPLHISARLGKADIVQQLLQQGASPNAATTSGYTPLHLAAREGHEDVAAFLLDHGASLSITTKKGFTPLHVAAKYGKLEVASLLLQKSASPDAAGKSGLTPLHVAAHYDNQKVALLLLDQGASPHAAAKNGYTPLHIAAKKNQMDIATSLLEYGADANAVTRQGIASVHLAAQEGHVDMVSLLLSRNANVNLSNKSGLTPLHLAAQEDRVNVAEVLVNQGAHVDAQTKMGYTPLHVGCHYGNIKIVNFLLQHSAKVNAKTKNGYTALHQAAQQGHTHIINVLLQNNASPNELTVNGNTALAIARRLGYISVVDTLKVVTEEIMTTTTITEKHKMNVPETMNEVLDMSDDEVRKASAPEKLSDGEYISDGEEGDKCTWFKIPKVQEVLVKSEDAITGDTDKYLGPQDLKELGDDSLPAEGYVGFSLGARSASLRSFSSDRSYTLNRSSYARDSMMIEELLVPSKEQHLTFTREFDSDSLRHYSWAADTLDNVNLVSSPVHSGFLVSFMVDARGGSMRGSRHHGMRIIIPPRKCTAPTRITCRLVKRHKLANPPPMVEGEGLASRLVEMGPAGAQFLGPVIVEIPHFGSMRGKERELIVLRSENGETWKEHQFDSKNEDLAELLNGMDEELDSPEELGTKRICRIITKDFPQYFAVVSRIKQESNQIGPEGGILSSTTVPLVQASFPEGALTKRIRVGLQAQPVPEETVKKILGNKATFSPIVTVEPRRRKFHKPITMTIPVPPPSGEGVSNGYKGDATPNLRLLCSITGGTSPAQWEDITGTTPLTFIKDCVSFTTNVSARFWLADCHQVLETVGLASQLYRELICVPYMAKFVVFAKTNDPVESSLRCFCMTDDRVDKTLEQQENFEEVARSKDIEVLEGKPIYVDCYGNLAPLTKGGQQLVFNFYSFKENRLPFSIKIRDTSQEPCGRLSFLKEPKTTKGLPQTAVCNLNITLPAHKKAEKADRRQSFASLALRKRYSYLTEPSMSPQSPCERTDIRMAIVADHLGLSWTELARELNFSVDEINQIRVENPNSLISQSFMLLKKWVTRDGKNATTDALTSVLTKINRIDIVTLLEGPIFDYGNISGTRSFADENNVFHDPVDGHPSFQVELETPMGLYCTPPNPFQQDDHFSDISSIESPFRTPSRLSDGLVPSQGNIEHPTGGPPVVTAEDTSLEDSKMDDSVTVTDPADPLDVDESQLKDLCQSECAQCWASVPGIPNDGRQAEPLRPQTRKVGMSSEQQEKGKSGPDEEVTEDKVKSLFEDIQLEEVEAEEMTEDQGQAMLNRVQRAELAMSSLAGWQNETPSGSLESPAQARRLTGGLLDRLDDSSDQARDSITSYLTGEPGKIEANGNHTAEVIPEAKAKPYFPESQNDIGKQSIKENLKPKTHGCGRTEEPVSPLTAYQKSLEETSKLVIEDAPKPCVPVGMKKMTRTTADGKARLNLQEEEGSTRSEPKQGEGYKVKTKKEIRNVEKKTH

type 1 inositol trisphosphate receptor (InsP3R1), endogenous, N2a cells (from UniProt P11881 1-2749) (natural protein)
percent of InsP3R1 pulled down relative to UPA-DD with E35a [1]: 30%

type 1 inositol trisphosphate receptor (InsP3R1), endogenous, mouse cerebellum (from UniProt P11881 1-2749) (natural protein)
percent reduction of co-precipitated InsP3R1 against WT [2]: 77%

From article doi:10.64898/2025.12.12.693948
